Measurements: paper doi:10.1101/2020.04.21.032086

Molecular target: LgBiT-tagged human CXCR4 receptor (UniProt P61073)
Assay: split reporter

B1: purified HiBiT-HaloTag fusion protein (peptide)
chain: VSGWRLFKKIS
- koff: 0.00367 s⁻¹
- kon: 10000 M⁻¹ s⁻¹
- pKD: 6.43
